Results on ten molecules are retold here after publication PMC10609481, “Substrate DNA Promoting Binding of Mycobacterium tuberculosis MtrA by Facilitating Dimerization and Interpretation of Affinity by Minor Groove Width”.

“And” between values parts separate entries of the source, which are not always exact repeats. Identical values can stand only once.

For data set [1], the target named is T1, MtrA (Mycobacterium tuberculosis H37Rv) (UniProt P9WGM7).
T1 sequence: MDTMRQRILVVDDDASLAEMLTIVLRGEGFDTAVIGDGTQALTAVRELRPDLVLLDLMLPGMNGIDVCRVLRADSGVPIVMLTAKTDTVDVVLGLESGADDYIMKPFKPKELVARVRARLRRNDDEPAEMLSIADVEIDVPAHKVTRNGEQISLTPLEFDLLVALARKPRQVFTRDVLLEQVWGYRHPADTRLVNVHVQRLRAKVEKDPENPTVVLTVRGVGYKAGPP
The data set is described as follows: BLI. On the technique in general: Biolayer interferometry detects binding as a change in optical thickness at a sensor tip.

For data set [2], the target named is T2, MtrA (Mycobacterium tuberculosis H37Rv, UniProt P9WGM7 1-228).
T2 sequence: T1 sequence
The data set is described as follows: BLI. The conditions noted are these: protein: recombinant; tags: His6 (pET28a, BamHI/XhoI; N-terminal, inferred from stop codon in reverse primer); chain copies: 2; blunt.

A word on the Kd: it is the constant that tells how readily two partners part at equilibrium. In data set [1], Rv0320 fragment had a Kd of 0.142 µM.

In data set [1], Rv0469 fragment had a Kd of 119 µM.

On to Rv1918c fragment, for which the Kd in data set [1] was 0.079 µM.

Rv3246c fragment: the Kd in data set [1] turned out to be 9880 µM.

In data set [1], Rv3849 fragment displayed a Kd of 9650 µM.

B1: Rv0309 fragment (dsDNA)
DNA 1: GCTTTGTCACCGCACAGTGACCCAGC
DNA 2: GCTGGGTCACTGTGCGGTGACAAAGC
Regarding B1, the Kd in data set [2] was found to be 178 µM.

B2: Rv2524c fragment (dsDNA)
DNA 1: GTTTTGTTATCAAATCGTTATGCTGG
DNA 2: CCAGCATAACGATTTGATAACAAAAC
On to B2, for which the Kd in data set [2] is 0.0462 µM and 0.0625 µM.

B3: Rv3859c fragment (dsDNA)
DNA 1: GTTACGTGATCGAATTGTGGTCCAGG
DNA 2: CCTGGACCACAATTCGATCACGTAAC
For B3, the Kd in data set [2] was 13.3 µM and 11.1 µM.

B4: No-Binding fragment (dsDNA)
DNA 1: ACAGCGGGACGTTTTCGCGCTGCATC
DNA 2: GATGCAGCGCGAAAACGTCCCGCTGT
Take B4: the binding result in data set [2] was “no binding”.

B5: artificial highest-contribution sequence (dsDNA)
DNA 1: GTTTTGTTATCGTTTTGTGATATGGA
DNA 2: TCCATATCACAAAACGATAACAAAAC
For B5, in data set [2], the Kd came out at 0.248 µM.
